Some targets named below: HLA-A0201 (human); HLA-B4402 (human); HLA-A3101 (human); HLA-C0401 (human); HLA-B3503 (human); HLA-A0203 (human); HLA-DRB10402 (human); HLA-B3501 (human); HLA-A6901 (human); HLA-DRB10101 (human); HLA-B3802 (human); HLA-A2402 (human); HLA-A0101 (human); HLA-B3901 (human); HLA-B4001 (human); HLA-C1701 (human); HLA-B3508 (human); HLA-B3801 (human); HLA-B0702 (human); HLA-DRB10401 (human); HLA-B5701 (human); HLA-B4701 (human); HLA-DRB11104 (human).

Test in all cases: cell-based or functional assay

B1: WT1 225-233 NLYQMTSQLE (peptide)
peptide: NLYQMTSQLE
Turning to B1, the “Cytotoxic CTL response, % (at 50:1) E:T ratio vs WT1+ allo APC with restricting HLA allele loaded with WT1 peptide” value with HLA-A0201 came out at 28%.

B2: WT1 390-398 RKFSRSDHL (peptide)
peptide: RKFSRSDHL
As to B2, in the assay with HLA-A0201, the “Cytotoxic CTL response, % (at 50:1) E:T ratio vs WT1+ allo APC with restricting HLA allele loaded with WT1 peptide” value came to 27%.

B3: WT1 106-114 ACRYGPFGP (peptide)
peptide: ACRYGPFGP
As for B3, the “Cytotoxic CTL response, % (at 50:1) E:T ratio vs WT1+ allo APC with restricting HLA allele loaded with WT1 peptide” value in the assay with HLA-B4402 stood at 23%.

B4: WT1 (-107)-(-99) HFPPSLPPT (peptide)
peptide: HFPPSLPPT
As to B4, the “Cytotoxic CTL response, % (at 50:1) E:T ratio vs WT1+ allo APC with restricting HLA allele loaded with WT1 peptide” value with HLA-A3101 came to 27%.

B5: WT1 202-210 CHTPTDSCT (peptide)
peptide: CHTPTDSCT
In the case of B5, the “Cytotoxic CTL response, % (at 50:1) E:T ratio vs WT1+ allo APC with restricting HLA allele loaded with WT1 peptide” value with HLA-B4402 was found to be 19%.

B6: WT1 122-130 SGQARMFPN (peptide)
peptide: SGQARMFPN
B6: the “Cytotoxic CTL response, % (at 50:1) E:T ratio vs WT1+ allo APC with restricting HLA allele loaded with WT1 peptide” value with HLA-C0401 and in the assay with HLA-B3503 was 41% each time.

B7: WT1 243-252 LGATLKGVAA (peptide)
peptide: LGATLKGVAA
B7: the “Cytotoxic CTL response, % (at 50:1) E:T ratio vs WT1+ allo APC with restricting HLA allele loaded with WT1 peptide” value in the assay with HLA-A0203 was 21%.

B8: WT1 (-27)-(-19) KLGAAEASA (peptide)
peptide: KLGAAEASA
As to B8, the “Cytotoxic CTL response, % (at 50:1) E:T ratio vs WT1+ allo APC with restricting HLA allele loaded with WT1 peptide” value with HLA-A0201 amounted to 22%.

B9: WT1 38-48 LDFAPPGASAY (peptide)
peptide: LDFAPPGASAY
As for B9, the “Cytotoxic CTL response, % (at 50:1) E:T ratio vs WT1+ allo APC with restricting HLA allele loaded with WT1 peptide” value with HLA-DRB10402 came out at 71%.

B10: WT1 235-249 CMTWNQMNLGATLKG (peptide)
peptide: CMTWNQMNLGATLKG
Take B10: the “Cytotoxic CTL response, % (at 50:1) E:T ratio vs WT1+ allo APC with restricting HLA allele loaded with WT1 peptide” value with HLA-DRB10402 was 15%.

B11: WT1 58-66 PAPPPPPPP (peptide)
peptide: PAPPPPPPP
As to B11, in the assay with HLA-A0201, the “Cytotoxic CTL response, % (at 50:1) E:T ratio vs WT1+ allo APC with restricting HLA allele loaded with WT1 peptide” value came to 18%.

B12: WT1 174-182 HSFKHEDPM (peptide)
peptide: HSFKHEDPM
Consider B12, for which, in the assay with HLA-B3501, the “Cytotoxic CTL response, % (at 50:1) E:T ratio vs WT1+ allo APC with restricting HLA allele loaded with WT1 peptide” value is 63%.

B13: WT1 246-253 TLGVAAGS (peptide)
peptide: TLGVAAGS
As for B13, the “Cytotoxic CTL response, % (at 50:1) E:T ratio vs WT1+ allo APC with restricting HLA allele loaded with WT1 peptide” value in the assay with HLA-A6901 stood at 57%.

B14: WT1 (-47)-(-37) PGCLQQPEQQG (peptide)
peptide: PGCLQQPEQQG
On to B14, for which, in the assay with HLA-DRB10101, the “Cytotoxic CTL response, % (at 50:1) E:T ratio vs WT1+ allo APC with restricting HLA allele loaded with WT1 peptide” value was 25%.

B15: WT1 206-214 TDSCTGSQA (peptide)
peptide: TDSCTGSQA
Turning to B15, the “Cytotoxic CTL response, % (at 50:1) E:T ratio vs WT1+ allo APC with restricting HLA allele loaded with WT1 peptide” value with HLA-B3802 was determined as 53%; in the assay with HLA-B4402, 88%.

B16: WT1 239-248 NQMNLGATL (peptide)
peptide: NQMNLGATL
As to B16, in the assay with HLA-A2402, the “Cytotoxic CTL response, % (at 50:1) E:T ratio vs WT1+ allo APC with restricting HLA allele loaded with WT1 peptide” value worked out at 2%.

B17: WT1 146-154 NQGYSTVTF (peptide)
peptide: NQGYSTVTF
B17: the “Cytotoxic CTL response, % (at 50:1) E:T ratio vs WT1+ allo APC with restricting HLA allele loaded with WT1 peptide” value in the assay with HLA-A0101 came out at 15%.

B18: WT1 (-75)-(-67) AILDFLLLQ (peptide)
peptide: AILDFLLLQ
As to B18, the “Cytotoxic CTL response, % (at 50:1) E:T ratio vs WT1+ allo APC with restricting HLA allele loaded with WT1 peptide” value with HLA-A0201 was 17%.

B19: WT1 218-226 RTPYSSDNL (peptide)
peptide: RTPYSSDNL
With B19, in the assay with HLA-B3503, the “Cytotoxic CTL response, % (at 50:1) E:T ratio vs WT1+ allo APC with restricting HLA allele loaded with WT1 peptide” value came out at 31%.

B20: WT1 22-31 GGCALPVSGA (peptide)
peptide: GGCALPVSGA
Regarding B20, in the assay with HLA-A0201, the “Cytotoxic CTL response, % (at 50:1) E:T ratio vs WT1+ allo APC with restricting HLA allele loaded with WT1 peptide” value was determined as 25%.

B21: WT1 30-38 GAAQWAPVL (peptide)
peptide: GAAQWAPVL
In the case of B21, the “Cytotoxic CTL response, % (at 50:1) E:T ratio vs WT1+ allo APC with restricting HLA allele loaded with WT1 peptide” value with HLA-B3901 was found to be 19%.

B22: WT1 242-250 NLGATLKGV (peptide)
peptide: NLGATLKGV
On to B22, for which the entries for the “Cytotoxic CTL response, % (at 50:1) E:T ratio vs WT1+ allo APC with restricting HLA allele loaded with WT1 peptide” value with HLA-A0101 and in the assay with HLA-A0201 were 17% and 14%, respectively.

B23: WT1 398-406 … (peptide)
peptide: LKTHTTRTHT
Take B23: the “Cytotoxic CTL response, % (at 50:1) E:T ratio vs WT1+ allo APC with restricting HLA allele loaded with WT1 peptide” value with HLA-A0201 is 22%.

B24: WT1 436-445 NMHQRNHTKL (peptide)
peptide: NMHQRNHTKL
Regarding B24, the “Cytotoxic CTL response, % (at 50:1) E:T ratio vs WT1+ allo APC with restricting HLA allele loaded with WT1 peptide” value was 26% in the assay with HLA-B4001, 27% with HLA-A2402 and 32% with HLA-A0201.

B25: WT1 238-246 WNQMNLGAT (peptide)
peptide: WNQMNLGAT
As for B25, the “Cytotoxic CTL response, % (at 50:1) E:T ratio vs WT1+ allo APC with restricting HLA allele loaded with WT1 peptide” value with HLA-C1701 was determined as 7%; in the assay with HLA-A0101 it was 19%; in the assay with HLA-A0201 it was 21%; in the assay with HLA-B3508, 21%.

B26: WT1 (-99)-(-91) THSPTHPPR (peptide)
peptide: THSPTHPPR
In the case of B26, the “Cytotoxic CTL response, % (at 50:1) E:T ratio vs WT1+ allo APC with restricting HLA allele loaded with WT1 peptide” value in the assay with HLA-B4001 was found to be 31%; in the assay with HLA-A0201 it was 21%.

B27: WT1 166-174 HHAAQFPNH (peptide)
peptide: HHAAQFPNH
Consider B27, for which, in the assay with HLA-B3801, the “Cytotoxic CTL response, % (at 50:1) E:T ratio vs WT1+ allo APC with restricting HLA allele loaded with WT1 peptide” value is 17%.

B28: WT1 (-8)-(1) ASGSEPQQM (peptide)
peptide: ASGSEPQQM
Take B28: the “Cytotoxic CTL response, % (at 50:1) E:T ratio vs WT1+ allo APC with restricting HLA allele loaded with WT1 peptide” value with HLA-B3501 was found to be 51%.

B29: WT1 (-125)-(-117) RQRPHPGAL (peptide)
peptide: RQRPHPGAL
On to B29, for which the “Cytotoxic CTL response, % (at 50:1) E:T ratio vs WT1+ allo APC with restricting HLA allele loaded with WT1 peptide” value with HLA-B0702 worked out at 53%.

B30: WT1 (-110)-(-102) PLPHFPPSL (peptide)
peptide: PLPHFPPSL
As to B30, in the assay with HLA-A0201, the “Cytotoxic CTL response, % (at 50:1) E:T ratio vs WT1+ allo APC with restricting HLA allele loaded with WT1 peptide” value was 24%.

B31: WT1 (-119)-(-111) GALRNPTAC (peptide)
peptide: GALRNPTAC
As for B31, the “Cytotoxic CTL response, % (at 50:1) E:T ratio vs WT1+ allo APC with restricting HLA allele loaded with WT1 peptide” value with HLA-B0702 is 22%.

B32: WT1 323-332 FMCAYPGCNK (peptide)
peptide: FMCAYPGCNK
Regarding B32, the results for the “Cytotoxic CTL response, % (at 50:1) E:T ratio vs WT1+ allo APC with restricting HLA allele loaded with WT1 peptide” value with HLA-A0101 and in the assay with HLA-B3501 were 0% and 61%, respectively.

B33: WT1 135-143 PSCLESQPA (peptide)
peptide: PSCLESQPA
On to B33, for which the “Cytotoxic CTL response, % (at 50:1) E:T ratio vs WT1+ allo APC with restricting HLA allele loaded with WT1 peptide” value with HLA-B3501 was found to be 21%.

B34: WT1 269-278 GYESDNHTT (peptide)
peptide: GYESDNHTT
Turning to B34, the figures for the “Cytotoxic CTL response, % (at 50:1) E:T ratio vs WT1+ allo APC with restricting HLA allele loaded with WT1 peptide” value with HLA-A0101 and with HLA-B3501 were 26% and 23%, respectively.

B35: WT1 46-54 SAYGSLGGP (peptide)
peptide: SAYGSLGGP
As for B35, the “Cytotoxic CTL response, % (at 50:1) E:T ratio vs WT1+ allo APC with restricting HLA allele loaded with WT1 peptide” value in the assay with HLA-B4001 came to 24%; with HLA-A0201, 31%.

B36: WT1 320-334 KRPFMCAYPGC (peptide)
peptide: KRPFMCAYPGC
For B36, the “Cytotoxic CTL response, % (at 50:1) E:T ratio vs WT1+ allo APC with restricting HLA allele loaded with WT1 peptide” value with HLA-DRB10401 amounted to 0%.

B37: WT1 6-15 RDLNALLPAV (peptide)
peptide: RDLNALLPAV
B37: the figures for the “Cytotoxic CTL response, % (at 50:1) E:T ratio vs WT1+ allo APC with restricting HLA allele loaded with WT1 peptide” value in the assay with HLA-B5701 and with HLA-A0201 were 22% and 31%, respectively.

B38: WT1 38-46 LDFAPPGAS (peptide)
peptide: LDFAPPGAS
Consider B38, for which the “Cytotoxic CTL response, % (at 50:1) E:T ratio vs WT1+ allo APC with restricting HLA allele loaded with WT1 peptide” value with HLA-A0201 is 62%.

B39: WT1 (-47)-(-39) PGCLQQPEQ (peptide)
peptide: PGCLQQPEQ
Turning to B39, the “Cytotoxic CTL response, % (at 50:1) E:T ratio vs WT1+ allo APC with restricting HLA allele loaded with WT1 peptide” value with HLA-A0201 is 27%; with HLA-B4701, 25%.

B40: WT1 238-248 WNQMNLGATLK (peptide)
peptide: WNQMNLGATLK
With B40, in the assay with HLA-DRB11104, the “Cytotoxic CTL response, % (at 50:1) E:T ratio vs WT1+ allo APC with restricting HLA allele loaded with WT1 peptide” value stood at 1%.

B41: WT1 209-217 CTGSQALLL (peptide)
peptide: CTGSQALLL
Take B41: the “Cytotoxic CTL response, % (at 50:1) E:T ratio vs WT1+ allo APC with restricting HLA allele loaded with WT1 peptide” value with HLA-A0101 worked out at 26%.

(Values after patent US20170334951A1 (Memorial Sloan Kettering, published 2017).)
